Source: PMC5603801

Target: PnpM-His6 (C-terminal His-tagged PnpM, LysR-type transcriptional regulator of Pseudomonas sp. strain WBC-3) (Pseudomonas sp. strain WBC-3)
Assay: SEC; analytical gel filtration of PnpM-His6 on Hiload Superdex 200 pg (1.6 x 60 cm); 10 mM Tris-HCl pH 7.5, 0.1 M NaCl, 5% glycerol; 0.5 ml/min; buffer with or without PNP; native mass from a calibration curve of standard proteins

## PnpM-His6 (C-terminal His-tagged PnpM, LysR-type transcriptional regulator of Pseudomonas sp. strain WBC-3) (natural protein)
  stoichiometry N: 4
